Values quoted from earlier work as cited in PMC4303689.

Molecular target: His50 (UniProt position 50, KEGVVHGVATV)
Experiment: NMR
Settings: not stated (the range of values reflects different ionic strengths); free monomeric alpha-synuclein (inferred from context)

alpha-synuclein (Homo sapiens)
pKa: 6.5–6.8
